Results reported in publication PMC2939893, “Mammalian Otolin: A Multimeric Glycoprotein Specific to the Inner Ear that Interacts with Otoconial Matrix Protein Otoconin-90 and Cerebellin-1” (PLoS ONE, 2010).

Target: the molecule itself
Assay: SEC; supernatant (500 µl) of transfected HEK293T cells with FLAG-tagged Otolin on Superdex 200 HR 10/30 in PBS; fractions immunoblotted with anti-FLAG M2

B1: C-terminal FLAG-tagged Otolin (natural protein, mouse, UniProt Q4ZJM7 24-482, looked up)
chain: KTTPYTKFTKKSEGKEMLKGLKPSSGFFLDGEETVHTETAAMAEPTTGSPALAMAESTAGPSASATTRLLPFESFSLDTTGFVLNCCHCCSFVTGQKGEPGKMGKQGPKGETGDTGSPGHPGTTGPQGPKGQKGEKGLKGDRGDQGAGGIPGYPGKPGEQGALGPKGDKGTIGPAGTKGQKGSKGELCGNGTKGEKGDPGASGAHGFIGEPGAKGEKGGVGEKGYRGDLGERGEKGQKGEKGMEGEKGSRGDVGSEGKRGSDGLPGLRGDSGPKGEKGEIGSPGFTGPAGPKGELGSKGVRGPTGKKGSRGVKGSKGEATQVPQSAFSALLSKPFPPPNVPIKFDKILSNDQGDYSPVTGKFNCSVPGTYIFSYHVTVRGRPARISLVARNRKQFKSRETLYGQQVDQASLLLILKLSAGDQVWLEVSKDWNGLYVGPEDDSIFSGFLLYPEETFSKSP
modifications: hydroxyproline at Pro-141, 144, 174, 177, 180, 222, 234, 288 and 306; Lys-189 and Lys-315 hydroxylated and glycosylated with a glucosyl-galactosyl group (mass spectrometry of purified recombinant Otolin)
notes: Otolin, mouse, GenBank DQ002405; entire coding region (482 amino acids, own signal peptide) cloned and expressed; the secreted protein was collected from the medium; also called otolin-FLAG; recombinant Otolin; source: HEK293T, transiently transfected; not shown: FLAG, C-terminal, kept
binding result: binds
